As usually defined, the stoichiometry N is a count of units in the complex or per binding partner.

The target in assay [1] is zebrafish Ngly2 (amino acids: 45-663) (zebrafish (Danio rerio)). Put plainly: SEC; gel filtration at pH 4.0; elution around 150 kDa. In general terms: SEC sorts molecules by how far they enter the pores of the column.
For assay [2] the target is unchanged. As to the kind of experiment: SEC; gel filtration at pH 8.0; Superdex200 increase 10/300 GL, 20 mM Tris-HCl (pH 8.0), 150 mM NaCl; elution around 150 kDa.

Turning to “zebrafish Ngly2 (amino acids: 45-663) (enzyme)”, the stoichiometry N in assay [1] and in assay [2] was 2 each time.
